Experimental data published in patent US20210347821A1 (published 2021).
Where no end group is shown, it is not given here. The star is where a group is joined. NPEG4 = 4-unit NPEG linker joining two HWLKV peptides through their N-termini, carries the CPP on its nitrogen; Biotin = O=C1N[C@H]2[C@H](CS[C@H]2CCCCC(=O)*)N1

Key:
[1] = biological target: T1, Protein Interacting with C Kinase-1 (PICK1), purified recombinant (UniProt Q9EP80 1-416); assay: fluorescence polarization competition, tracer 5-FAM-TAT-C5
T1 construct: also called purified PICK1

[2] = biological target: T1, Protein Interacting with C Kinase-1 …; assay: fluorescence polarization competition, tracer 5FAM-TAT-(C5)
[3] = biological target: T2, PICK1 (endogenous, mouse spinal cord) (mouse, UniProt Q62083 1-416); assay: pull-down from mouse spinal cord after intrathecal administration
T2 construct: also called PICK1 protein

GFP-PICK1 A87L [4] = biological target: T3, GFP-PICK1 A87L (UniProt Q9EP80 1-416); assay: pull-down from HEK293 cells
T3 construct: also called PDZ deficient mutant GFP-PICK1 A87L; not shown: GFP tag

GFP-PICK1 A87L [5] = biological target: T3, GFP-PICK1 A87L; assay: colocalization in heterologous cells

T1 sequence (Q9EP80 whole entry): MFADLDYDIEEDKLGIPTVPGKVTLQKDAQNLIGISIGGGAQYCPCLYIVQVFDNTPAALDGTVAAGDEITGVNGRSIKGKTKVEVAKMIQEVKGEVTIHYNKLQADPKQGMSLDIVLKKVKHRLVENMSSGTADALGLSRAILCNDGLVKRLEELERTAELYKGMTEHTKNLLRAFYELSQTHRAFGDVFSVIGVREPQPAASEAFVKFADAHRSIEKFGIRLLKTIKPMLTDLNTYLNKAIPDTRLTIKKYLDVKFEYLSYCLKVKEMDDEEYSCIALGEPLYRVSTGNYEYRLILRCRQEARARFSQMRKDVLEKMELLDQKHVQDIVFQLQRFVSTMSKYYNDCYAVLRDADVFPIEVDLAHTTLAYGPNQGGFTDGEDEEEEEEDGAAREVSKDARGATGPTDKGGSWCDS
T3 sequence (Q9EP80 whole entry A87L): as the sequence (Q9EP80 whole entry) above, with A87L counted along it
T2 sequence (Q62083 whole entry): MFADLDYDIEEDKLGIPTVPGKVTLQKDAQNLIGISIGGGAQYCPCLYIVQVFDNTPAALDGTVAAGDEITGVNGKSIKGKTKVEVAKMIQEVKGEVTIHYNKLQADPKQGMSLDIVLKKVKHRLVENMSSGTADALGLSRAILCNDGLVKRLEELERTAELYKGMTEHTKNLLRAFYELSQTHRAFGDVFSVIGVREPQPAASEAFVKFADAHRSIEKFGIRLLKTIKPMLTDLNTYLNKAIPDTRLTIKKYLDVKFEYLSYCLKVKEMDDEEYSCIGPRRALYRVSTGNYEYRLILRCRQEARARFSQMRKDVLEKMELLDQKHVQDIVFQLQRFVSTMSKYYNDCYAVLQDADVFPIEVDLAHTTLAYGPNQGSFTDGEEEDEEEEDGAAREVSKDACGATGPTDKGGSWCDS

B1: TAT11-PEG4-(DATC5)2 (peptide)
peptide 1: YGRKKRRQRRR
peptide 2: NPEG4-HWLKV
modifications: not fully specified (C-terminus)
notes: Branched compound: two HWLKV peptides joined through their N-termini by a 4-unit NPEG linker that carries the CPP; also called TAT-P4-(C5)2
Q: Which “Fold affinity change (against TAT-P4-(C5)2)” value (“Fold affinity change” for short) [1] does the source give for B1 here?
A: 1 fold

Q: And the Ki [1]?
A: 4 nM

Q: What about the “fold shift in affinity” value [2] of the same binder?
A: 301 fold

B2: N-terminally biotinylated TAT-P4-(C5)2 (peptide)
peptide 1: Biotin-YGRKKRRQRRR
peptide 2: HWLKV
modifications: not fully specified
notes: also called Biotin-TAT-P4-(C5)2
Q: Does B2 bind [3]?
A: binds

Q: Does B2 bind (GFP-PICK1 A87L [4])?
A: no binding

B3: MAP-P4-(C5)2 (peptide)
peptide 1: KLALKLALKALKAALKLA
peptide 2: HWLKV
modifications: not fully specified
notes: also called MAP-NPEG4-(HWLKV)2; MAP-peptide
Q: How did the “Fold affinity change” value [1] turn out when B3 was run?
A: 0.8 fold

Q: And the Ki [1]?
A: 5.1 nM

B4: PNT-P4-(C5)2 (peptide)
peptide 1: RQIKIWFQNRRMKWKK
peptide 2: HWLKV
modifications: not fully specified
notes: Branched compound as TAT-P4-(C5)2, with Penetratin as CPP; also called Pent-P4-(C5)2; PNT-peptide
Q: B4 was tested. Which “Fold affinity change” value [1] did it give?
A: 1.7 fold

B5: TAMRA-YGRKKRRQRRR-PEG4-(HWLKV)2 (peptide)
peptide 1: YGRKKRRQRRR
peptide 2: HWLKV
modifications: not fully specified; N-terminus linked to the NPEG4 linker that joins the two copies; TAMRA on the N-terminus of the TAT sequence; conjugated to the NPEG4 linker
notes: also called TMR-TAT-P4-(C5)2; TMR-TAT11-P4-(C5)2
Q: Does B5 bind (GFP-PICK1 A87L [5])?
A: no binding
